Data: patent US20260035462A1 (Hoffmann-La Roche, published 2026)
Where two headings read alike, the source gives them in different places.

T1: Trop2 on human cancer cell lines (T-47D, HPAF II, HeLa NLR, OVMANA) (human, UniProt P09758 27-323)
T1 construct: whole, on cells; also called Tumor-associated calcium signal transducer 2
T1 sequence (looked up): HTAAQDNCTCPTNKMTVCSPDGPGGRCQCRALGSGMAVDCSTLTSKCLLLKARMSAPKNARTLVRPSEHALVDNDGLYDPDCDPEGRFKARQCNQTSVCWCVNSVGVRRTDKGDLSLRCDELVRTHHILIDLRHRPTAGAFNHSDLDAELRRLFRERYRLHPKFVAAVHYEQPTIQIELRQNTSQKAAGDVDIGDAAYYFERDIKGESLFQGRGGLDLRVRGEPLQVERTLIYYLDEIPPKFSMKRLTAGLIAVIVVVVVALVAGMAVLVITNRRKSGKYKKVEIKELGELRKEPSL

B1: classical Trop2 TCB P1AI0692 (unmasked) (bispecific antibody, human IgG1, lambda, L234A L235A)
heavy 1: DIQMTQSPSSLSASVGDRVTITCKASQDVSIAVAWYQQKPGKAPKVLIYSASYRYTGVPDRFSGSGSGTDFTFTISSLQPEDIAVYYCQQHYITPLTFGGGTKVEIKSSASTKGPSVFPLAPSSKSTSGGTAALGCLVKDYFPEPVTVSWNSGALTSGVHTFPAVLQSSGLYSLSSVVTVPSSSLGTQTYICNVNHKPSNTKVDKKVEPKSCDKTHTCPPCPAPEAAGGPSVFLFPPKPKDTLMISRTPEVTCVVVDVSHEDPEVKFNWYVDGVEVHNAKTKPREEQYNSTYRVVSVLTVLHQDWLNGKEYKCKVSNKALGAPIEKTISKAKGQPREPQVCTLPPSRDELTKNQVSLSCAVKGFYPSDIAVEWESNGQPENNYKTTPPVLDSDGSFFLVSKLTVDKSRWQQGNVFSCSVMHEALHNHYTQKSLSLSPG
heavy 2: not shown
light 1: QAVVTQEPSLTVSPGGTVTLTCGSSTGAVTTSNYANWVQEKPGQAFRGLIGGTNKRAPGTPARFSGSLLGGKAALTLSGAQPEDEAEYYCALWYSNLWVFGGGTKLTVLGQPKAAPSVTLFPPSSKKLQANKATLVCLISDFYPGAVTVAWKADSSPVKAGVETTTPSKQSNNKYAASSYLSLTPEQWKSHRSYSCQVTHEGSTVEKTVAPTECS
light 2: QIQLVQSGHEVKKPGASVKVSCKASGYTFTNYGMNWVRQAPGQGLEWMGWINTKTGEPTYAEEFKGRFVFSLETSASTAYLQISSLKAEDMAMYFCGRGGYGSSYWYFDVWGQGTTVTVSSASVAAPSVFIFPPSDEQLKSGTASVVCLLNNFYPREAKVQWKVDNALQSGNSQESVTEQDSKDSTYSLSSTLTLSKADYEKHKVYACEVTHQGLSSPVTKSFNRGEC
notes: Tested with and without Matriptase pre-treatment; no mask; also called unmasked Trop2 TCB; unmasked classical TCB
B2: non-cleavable IGF-1R proTCB P1AH0969 (IGF-1R pro-TCB 2+1; non-cleavable) (bispecific antibody, human IgG1, lambda, L234A L235A)
heavy 1: EIVLTQSPATLSLSPGERATLSCRASQSVSSYLAWYQQKPGQAPRLLIYDASKRATGIPARFSGSGSGTDFTLTISSLEPEDFAVYYCQQRSKWPPWTFGQGTKVESKSSASTKGPSVFPLAPSSKSTSGGTAALGCLVKDYFPEPVTVSWNSGALTSGVHTFPAVLQSSGLYSLSSVVTVPSSSLGTQTYICNVNHKPSNTKVDKKVEPKSCDKTHTCPPCPAPEAAGGPSVFLFPPKPKDTLMISRTPEVTCVVVDVSHEDPEVKFNWYVDGVEVHNAKTKPREEQYNSTYRVVSVLTVLHQDWLNGKEYKCKVSNKALGAPIEKTISKAKGQPREPQVCTLPPSRDELTKNQVSLSCAVKGFYPSDIAVEWESNGQPENNYKTTPPVLDSDGSFFLVSKLTVDKSRWQQGNVFSCSVMHEALHNHYTQKSLSLSPG
heavy 2: not shown
light 1: B1 light 1
light 2: QVELVESGGGVVQPGRSQRLSCAASGFTFSSYGMHWVRQAPGKGLEWVAIIWFDGSSTYYADSVRGRFTISRDNSKNTLYLQMNSLRAEDTAVYFCARELGRRYFDLWGRGTLVSVSSASVAAPSVFIFPPSDEQLKSGTASVVCLLNNFYPREAKVQWKVDNALQSGNSQESVTEQDSKDSTYSLSSTLTLSKADYEKHKVYACEVTHQGLSSPVTKSFNRGEC
notes: H1L2 mask joined by a GS linker without a protease site; also called non-cleavable IGF-1R TCB construct; non-cleavable proTCB
B3: classical IGF-1R TCB P1AH0975 (unmasked) (bispecific antibody, human IgG1, lambda, L234A L235A)
heavy 1: B2 heavy 1
heavy 2: not shown
light 1: B1 light 1
light 2: B2 light 2
notes: Tested with and without Matriptase pre-treatment; no mask; also called unmasked classical IGF-1R TCB
B4: Matriptase pre-cleaved IGF-1R proTCB (P1AH0943 after overnight incubation with human recombinant Matriptase) (bispecific antibody)
heavy 1: B2 heavy 1
heavy 2: not shown
light 1: B1 light 1
light 2: B2 light 2
notes: also called Matriptase pre-cleaved (+M) IGF-1R proTCB
B5: Matriptase pre-cleaved Trop2 proTCB (P1AI0690 after overnight incubation with Matriptase) (bispecific antibody)
heavy 1: B1 heavy 1
heavy 2: not shown
light 1: B1 light 1
light 2: B1 light 2
notes: also called Matriptase pre-cleaved (+M) Trop2 proTCB
B6: non-cleavable Trop2 proTCB P1AI0691 (Trop2 pro-TCB 2+1; non-cleavable) (bispecific antibody, human IgG1, lambda, L234A L235A)
heavy 1: B1 heavy 1
heavy 2: not shown
light 1: B1 light 1
light 2: B1 light 2
notes: H1L2 mask joined by a GS linker without a protease site; also called non-cleavable proTCB
B7: Trop2 proTCB P1AI0690 (Trop2 pro-TCB 2+1; matriptase; P035.093 PQARK H1L2 mask), not Matriptase pre-cleaved (bispecific antibody, human IgG1, lambda, L234A L235A)
heavy 1: B1 heavy 1
heavy 2: not shown
light 1: B1 light 1
light 2: B1 light 2
notes: Knob-into-hole 2+1 format; also called masked Trop2 proTCB; not pre-cleaved Trop2 proTCB
B8: IGF-1R proTCB P1AH0943 (IGF-1R pro-TCB 2+1; matriptase; P035.093 PQARK H1L2 mask), not Matriptase pre-cleaved (bispecific antibody, human IgG1, lambda, L234A L235A)
heavy 1: B2 heavy 1
heavy 2: not shown
light 1: B1 light 1
light 2: B2 light 2
notes: Knob-into-hole 2+1 format with the anti-idiotypic H1L2 scFv mask fused through a PQARK linker to the VH of the CD3 Fab; also called not-Matriptase pre-cleaved IGF-1R proTCB; not pre-cleaved IGF-1R proTCB

How the values were obtained:
[1] = molecular target: T1, Trop2 on human cancer cell lines …; test: flow cytometry on OVMANA cells, FITC anti-human IgG Fcγ secondary antibody, median fluorescence
Method: (§1) Target cells were harvested and transferred into a 96 well round bottom plate (100,000 cells per well). […] After the staining, the cells were washed twice with FACS buffer to remove unbound molecules. […] After 30 minutes incubation at 4° C. the cells were washed twice with FACS buffer to remove unbound antibodies. Finally, the cells were resuspended in 100 μl FACS buffer and analyzed by flow cytometry using BD Canto II.

[2] = molecular target: T2, human CD3 on Jurkat NFAT reporter T cells (human, UniProt P07766 23-207); test: flow cytometry on Jurkat NFAT reporter T cells (human CD3), 1:4 titration from 50 nM, FITC anti-human IgG Fcγ secondary antibody, median fluorescence; sample pre-incubated overnight with Matriptase (+M)
T2 construct: whole, on cells; also called CD3 on Jurkat T cells
Method: (§2) Jurkat-NFAT reporter cells (GloResponse Jurkat NFAT-RE-luc2P; Promega #CS176501) are a human acute lymphatic leukemia reporter cell line with a NFAT promoter, expressing human CD3. The cells were cultured in RPMI1640, 2 g/l glucose, 2 g/l NaHCO₃, 10% FBS, 25 mM HEPES, 2 mM L-glutamin, 1×NEAA, 1× sodium-pyruvate at 0.1-0.5 mio cells per ml.
(§3) The next day, Jurkat cells were harvested and transferred into a 96 well round bottom plate (100,000 cells per well). […] After the staining, the cells were washed twice with FACS buffer to remove unbound molecules. […] After 30 minutes incubation at 4° C. the cells were washed twice with FACS buffer to remove unbound antibodies. Finally, the cells were resuspended in 100 μl FACS buffer and analyzed by flow cytometry using BD Canto II.

[3] = molecular target: T2, human CD3 on Jurkat NFAT reporter T …; test: flow cytometry on Jurkat NFAT reporter T cells (human CD3), 1:4 titration from 50 nM, FITC anti-human IgG Fcγ secondary antibody, median fluorescence; sample not treated with Matriptase
Method: as §2, §3

[4] = molecular target: T1, Trop2 on human cancer cell lines …; test: flow cytometry on HeLa ST14 cells, FITC anti-human IgG Fcγ secondary antibody, median fluorescence
Method: as §1

[5] = molecular target: T1, Trop2 on human cancer cell lines …; test: flow cytometry on T-47D cells, FITC anti-human IgG Fcγ secondary antibody, median fluorescence
Method: as §1

[6] = molecular target: T1, Trop2 on human cancer cell lines …; test: flow cytometry on HPAF II cells, FITC anti-human IgG Fcγ secondary antibody, median fluorescence
Method: as §1

[7] = molecular target: T2, human CD3 on Jurkat NFAT reporter T …; test: flow cytometry on Jurkat NFAT reporter T cells (human CD3), 1:4 titration from 50 nM, FITC anti-human IgG Fcγ secondary antibody, median fluorescence; sample not treated with Matriptase; remark: listed apart in the source
Method: (§4) Jurkat-NFAT reporter cells (GloResponse Jurkat NFAT-RE-luc2P; Promega #CS176501) are a human acute lymphatic leukemia reporter cell line with a NFAT promoter, expressing human CD3. The cells were cultured in RPMI1640, 2 g/l glucose, 2 g/l NaHCO₃, 10% FBS, 25 mM HEPES, 2 mM L-glutamin, 1×NEAA, 1×sodium-pyruvate at 0.1-0.5 mio cells per ml.
(§5) The next day, Jurkat cells were harvested and transferred into a 96 well round bottom plate (100′000 cells per well). […] After the staining, the cells were washed twice with FACS buffer to remove unbound molecules. […] After 30 min incubation at 4° C. the cells were washed twice with FACS buffer to remove unbound antibodies. Finally, the cells were resuspended in a 100 μl FACS buffer and analyzed by flow cytometry using BD Canto II.

[8] = molecular target: T2, human CD3 on Jurkat NFAT reporter T …; test: flow cytometry on Jurkat NFAT reporter T cells (human CD3), 1:4 titration from 50 nM, FITC anti-human IgG Fcγ secondary antibody, median fluorescence; sample pre-incubated overnight with Matriptase (+M); remark: listed apart in the source
Method: as §4, §5

T2 sequence (P07766 23-207): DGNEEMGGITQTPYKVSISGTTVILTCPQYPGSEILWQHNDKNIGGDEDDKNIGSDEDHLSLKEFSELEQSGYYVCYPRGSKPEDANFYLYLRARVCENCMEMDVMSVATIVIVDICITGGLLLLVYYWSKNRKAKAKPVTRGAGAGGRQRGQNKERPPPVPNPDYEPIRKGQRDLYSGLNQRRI

Binder | EC50 (read off the curve) [1] | EC50 (read off the curve) [4] | EC50 (read off the curve) [5] | EC50 (read off the curve) [6] | further results
B1 | ~1 nM | ~1 nM | ~0.9 nM | ~1 nM | EC50 (read off the curve) [2]: ~1 nM; EC50 (read off the curve) [3]: ~1 nM
B2 | – | – | – | – | binding result [7]: no binding (tested: 50 nM)
B3 | – | – | – | – | EC50 (read off the curve) [8]: ~0.8 nM; EC50 (read off the curve) [7]: ~0.7 nM
B4 | – | – | – | – | EC50 (read off the curve) [8]: ~0.9 nM
B5 | – | – | – | – | EC50 (read off the curve) [2]: ~0.9 nM
B6 | ~3 nM | ~2 nM | ~2 nM | ~2 nM | binding result [3]: no binding (tested: 50 nM)
B7 | ~1 nM | ~1 nM | ~2 nM | ~1 nM | binding result [3]: no binding (tested: 50 nM)
B8 | – | – | – | – | binding result [7]: no binding (tested: 50 nM)
